Reference: publication doi:10.1101/2021.11.03.467182

Molecular target: SARS-CoV-2 NTD-RBD-foldon (SARS-CoV-2 (strain Wuhan-1/2020) | bacteriophage T4) (UniProt P0DTC2)
Test: SEC-MALS

SARS-CoV-2 NTD-RBD-foldon (from UniProt P0DTC2 14-541)
stoichiometry N: 3
